Results from PMC7846277.

Target: microtubules grown from purified bovine brain tubulin (bovine) (UniProt Q6B856)
Assay: laser trap (optical trap) rupture force assay; kinetochore particles on anti-His5 beads (7.5 nM Dsn1-His-Flag), placed at the ends of microtubules growing from coverslip-anchored seeds; BRB80 growth buffer with 1 mM GTP, 1.5 mg/mL tubulin; force ramp 0.25 pN/s; 23°C

UniProt Q6B856, sequence (Q6B856 whole entry, looked up): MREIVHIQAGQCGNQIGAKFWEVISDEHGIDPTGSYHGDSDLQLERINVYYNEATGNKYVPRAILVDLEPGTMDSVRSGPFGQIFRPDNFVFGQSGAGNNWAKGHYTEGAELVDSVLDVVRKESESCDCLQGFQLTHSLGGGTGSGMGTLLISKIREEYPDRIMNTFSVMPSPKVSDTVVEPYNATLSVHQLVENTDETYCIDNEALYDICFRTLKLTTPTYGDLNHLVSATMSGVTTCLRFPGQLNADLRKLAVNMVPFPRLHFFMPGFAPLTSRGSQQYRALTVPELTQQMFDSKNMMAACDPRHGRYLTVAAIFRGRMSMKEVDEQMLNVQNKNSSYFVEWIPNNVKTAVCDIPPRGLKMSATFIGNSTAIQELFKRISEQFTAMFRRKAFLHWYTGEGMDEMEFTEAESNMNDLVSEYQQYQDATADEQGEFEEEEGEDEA

Row | mean rupture force | Substance
1 | 9 pN | Wild-type kinetochore particles from mitotic metaphase cells (from UniProt P40568 1-576) (complex)
2 | 12 pN | Wild-type meiotic metaphase I kinetochore particles (from UniProt P40568 1-576) (complex)
